Measurements published in patent US20240376170A1.
Bridges are numbered along the chain shown (N, C = ends). Primed or numbered codes have the meaning given here. [ ]: non-standard residue; d: D form. Ygp(4) = Tyr with amino-capped PEG8 (O-(8x polyethylene glycol-amino)-tyrosine); Yn3(4) = Tyr with azide-capped PEG9 (O-(9x polyethylene glycol-azido)-tyrosine); PEG9″ = 9x polyethylene glycol spacer; PEG4′ = 4x polyethylene glycol; PEG9′ = 9x polyethylene glycol; hSer = N[C@@H](CCO)C(=O)O; Nle = CCCC[C@H](N)C(=O)O

B1: CMP-152 (ligand)
chain: PLGLAGAPTSSSTKKTQLQLEHLLLDLQXILNGINNYKNPKLTRXLXYKFYXPKKATELKHLQCLEEELKPLEEVLXLAQSKNFHLRPRDLISNINVIVLELKGSETTFXCEYADETATIVEFLNRWITFSQSIISTLT
modifications: not fully specified; Nle, Hse, Yn3 (Tyr with azide-capped PEG9), Ygp (Tyr with amino-capped PEG8) as printed in Table 3; PEG9-PLGLAG on the N-terminus, cyclised through glutaryl to the side chain of Lys 32
B2: CMP-152, MMP2 cleaved (ligand)
chain: PLGLAGAPTSSSTKKTQLQLEHLLLDLQ[Nle]ILNGINNYKNPKLTR[Nle]L[hSer][Yn3(4)]KF[Ygp(4)][Nle]PKKATELKHLQCLEEELKPLEEVL[hSer]LAQSKNFHLRPRDLISNINVIVLELKGSETTF[hSer]CEYADETATIVEFLNRWITFSQSIISTLT
modifications: linker N-38 via glutaryl‑PEG9; not fully specified (N-terminus); ends not checked; also: cleavable peptide cut by MMP2, site not given here
B3: CMP-154 (ligand)
chain: PLGLAGAPTSSSTKKTQLQLEHLLLDLQ[Nle]ILNGIENYKNPKLTR[Nle]L[hSer][Yn3(4)]KF[Ygp(4)][Nle]PKKATELKHLQCLEEELKPLEEVL[hSer]LAQSKNFHLRPRDLISNINVIVLELKGSETTF[hSer]CEYADETATIVEFLNRWITFSQSIISTLT
modifications: linker N-35 via PEG9′; not fully specified (N-terminus); ends not checked
B4: CMP-154, MMP2 cleaved (ligand)
chain: PLGLAGAPTSSSTKKTQLQLEHLLLDLQ[Nle]ILNGIENYKNPKLTR[Nle]L[hSer][Yn3(4)]KF[Ygp(4)][Nle]PKKATELKHLQCLEEELKPLEEVL[hSer]LAQSKNFHLRPRDLISNINVIVLELKGSETTF[hSer]CEYADETATIVEFLNRWITFSQSIISTLT
modifications: linker N-35 via PEG9′; not fully specified (N-terminus); ends not checked; also: cleavable peptide cut by MMP2, site not given here
B5: CMP-159 (ligand)
chain: PLGLAGAPTSSSTKKTQLQLEHLLLDLE[Nle]ILNGINNYKNPKLTR[Nle]L[hSer][Yn3(4)]KF[Ygp(4)][Nle]PKKATELKHLQCLEEELKPLEEVL[hSer]LAQSKNFHLRPRDLISNINVIVLELKGSETTF[hSer]CEYADETATIVEFLNRWITFSQSIISTLT
modifications: linker N-28 via PEG4′; not fully specified (N-terminus); ends not checked
B6: CMP-159, MMP2 cleaved (ligand)
chain: PLGLAGAPTSSSTKKTQLQLEHLLLDLE[Nle]ILNGINNYKNPKLTR[Nle]L[hSer][Yn3(4)]KF[Ygp(4)][Nle]PKKATELKHLQCLEEELKPLEEVL[hSer]LAQSKNFHLRPRDLISNINVIVLELKGSETTF[hSer]CEYADETATIVEFLNRWITFSQSIISTLT
modifications: linker N-28 via PEG4′; not fully specified (N-terminus); ends not checked; also: cut by MMP2 in the PLGLAG linker, site not given here, ring opened
B7: CMP-161 (ligand)
chain: PLGLAGAPTSSSTKKTQLQLEHLLLDLQ[Nle]ILEGINNYKNPKLTR[Nle]L[hSer][Yn3(4)]KF[Ygp(4)][Nle]PKKATELKHLQCLEEELKPLEEVL[hSer]LAQSKNFHLRPRDLISNINVIVLELKGSETTF[hSer]CEYADETATIVEFLNRWITFSQSIISTLT
modifications: linker N-32 via PEG9″; not fully specified (N-terminus); ends not checked
B8: CMP-161, MMP2 cleaved (ligand)
chain: PLGLAGAPTSSSTKKTQLQLEHLLLDLQ[Nle]ILEGINNYKNPKLTR[Nle]L[hSer][Yn3(4)]KF[Ygp(4)][Nle]PKKATELKHLQCLEEELKPLEEVL[hSer]LAQSKNFHLRPRDLISNINVIVLELKGSETTF[hSer]CEYADETATIVEFLNRWITFSQSIISTLT
modifications: not fully specified (N-terminus, bridges); ends and bridges not checked; also: cut by MMP2 in the PLGLAG linker, site not given here, ring opened

Biological target: IL-2Rβγ (CD122+, CD132+) on HEK-Blue IL-2Rβγ reporter cells (UniProt P14784)
Sequence (P14784 27-551 limits assumed, chain 1 of 2): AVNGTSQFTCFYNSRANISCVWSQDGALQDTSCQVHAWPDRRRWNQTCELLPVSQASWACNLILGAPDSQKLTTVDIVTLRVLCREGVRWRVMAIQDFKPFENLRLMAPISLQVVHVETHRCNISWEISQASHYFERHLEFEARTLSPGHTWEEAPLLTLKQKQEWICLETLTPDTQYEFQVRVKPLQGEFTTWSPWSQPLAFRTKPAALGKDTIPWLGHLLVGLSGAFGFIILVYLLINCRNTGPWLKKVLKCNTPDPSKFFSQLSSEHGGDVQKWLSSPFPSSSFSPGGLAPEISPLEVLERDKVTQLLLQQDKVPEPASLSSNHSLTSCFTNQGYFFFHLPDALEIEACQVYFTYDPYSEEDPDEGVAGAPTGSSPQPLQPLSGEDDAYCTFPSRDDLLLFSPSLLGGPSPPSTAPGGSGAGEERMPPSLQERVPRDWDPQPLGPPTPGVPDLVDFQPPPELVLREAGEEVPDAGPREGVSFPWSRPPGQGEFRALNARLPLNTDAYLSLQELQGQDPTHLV
Sequence (P31785 23-369 limits assumed, chain 2 of 2, further chain): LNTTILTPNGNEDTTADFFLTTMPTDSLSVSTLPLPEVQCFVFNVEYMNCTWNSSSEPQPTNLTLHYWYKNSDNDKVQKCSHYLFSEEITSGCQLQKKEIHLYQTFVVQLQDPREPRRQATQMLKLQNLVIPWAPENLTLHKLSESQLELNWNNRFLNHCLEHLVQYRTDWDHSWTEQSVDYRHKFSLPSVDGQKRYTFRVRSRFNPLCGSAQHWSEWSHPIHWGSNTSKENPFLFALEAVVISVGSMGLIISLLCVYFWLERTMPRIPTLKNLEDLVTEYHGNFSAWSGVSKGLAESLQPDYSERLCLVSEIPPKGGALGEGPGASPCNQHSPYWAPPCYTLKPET
Test: cell-based or functional assay

| Binder | Average EC50 (nM), HEK-Blue IL-2R (CD122+, CD132+) Reporter Assay [nM] |
| --- | --- |
| B1 | 0.0597 |
| B2 | 0.0064 |
| B3 | 0.106 |
| B4 | 0.0059 |
| B5 | 0.192 |
| B6 | 0.0071 |
| B7 | 0.168 |
| B8 | 0.0118 |
